# Measurements reported in the supplement of paper PMC10266784.
# B1: library; numbered along this chain (parent)
# chain: MAAAAAAAAEQQSSNGPVKKSMREKAVERRSVNKEHNSNFKAGYIPIDEDRLHKTGLRGRKGNLAICVIILLFILAVINLIITLVIWAVIRIGPNGCDSMEFHESGLLRFKQVSDMGVIHPLYKSTVGGRRNENLVITGNNQPIVFQQGTTKLSVENNKTSITSDIGMQFFDPRTQNILFSTDYETHEFHLPSGVKSLNVQKASTERITSNATSDLNIKVDGRAIVRGNEGVFIMGKTIEFHMGGNMELKAENSIILNGSVMVSTTRLPSSSSGDQLGSGDWVRYKLCMCADGTLFKVQVTSQNMGCQISDNPCGNTH
# Variants of: B1
# Assay: SGCB cell-surface expression functional score (HA stain, bin4 vs bin1, normalised to synonymous) (log10 ratio); higher = more cell-surface SGCB (functional)
# Procedure: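 Deep mutational scan of full-length human SGCB (YFP-SGCB-HA, NNN codon sublibraries A-F) delivered by lentivirus at low MOI into ADG-HEK293 cells stably expressing SGCA, SGCD and SGCG. YFP-positive cells were stained for surface HA on unpermeabilized cells and FACS-sorted into bins. The functional score is log10(frequency in high bin 4 / frequency in low bin 1), normalised per chunk so that synonymous variants have mean 0 and SD 0.5. Scores are the median over codons and over duplicate biological replicates; scores below -0.5 are called non-functional. Scale: negative means deleterious.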
row,Variant,SGCB cell-surface expression functional score (log10)
1,A76H,-0.07
2,A76D,-0.4
3,A76N,0.08
4,A76W,0.14
5,A76P,-0.1
6,A76I,0.22
7,A76Y,0.25
8,A76T,-0.35
9,A76G,-0.2
10,A76Q,0.3
11,A76R,-0.35
12,A76C,0.13
13,A76E,0.02
14,A76M,-0.23
15,A76K,-0.81
16,A76S,0.05
17,A76F,0.33
18,A76L,0.08
19,A76V,0
20,I92H,-1.9
21,I92D,-2.38
22,I92M,-0.21
23,I92L,-0.39
24,I92K,-1.31

row,Variant,SGCB cell-surface expression functional score (log10)
1,I92N,-1.68
2,I92A,-1.94
3,I92E,-2.15
4,I92G,-0.75
5,I92C,-1.75
6,I92F,-0.74
7,I90H,-1.82
8,I90W,-0.2
9,I90M,-0.16
10,I90R,-0.63
11,I90P,-1.1
12,I90K,0.13
13,I90G,-0.76
14,I90D,-0.63
15,I90N,0.07
16,I90Y,-1.02
17,I90C,0.33
18,I90A,0.12
19,I90Q,-0.71
20,I90V,0.01
21,I90L,0.26
22,I90E,-1.22
23,I90T,0.06
24,I90S,-0.35

row,Variant,SGCB cell-surface expression functional score (log10)
1,I90F,-1.5
2,W87R,-0.12
3,W87M,0.4
4,W87D,0.08
5,W87E,-0.7
6,W87V,-0.45
7,W87L,-0.04
8,W87Q,0.02
9,W87T,-0.05
10,W87A,-0.18
11,W87N,0.58
12,W87G,-0.12
13,W87F,0.33
14,W87H,-0.27
15,W87C,-0.23
16,W87I,0.48
17,W87P,-0.55
18,W87S,0.18
19,W87K,0.25
20,W87Y,0
21,A88L,0.14
22,A88W,-0.36
23,A88I,0.06
24,A88Y,0.01

row,Variant,SGCB cell-surface expression functional score (log10)
1,A88P,-1.07
2,A88N,-0.37
3,A88F,0.14
4,A88C,-0.27
5,A88D,0.41
6,A88V,0.25
7,A88R,-0.43
8,A88G,0.19
9,A88E,-0.1
10,A88Q,0.15
11,A88H,0.49
12,A88K,0.62
13,A88S,0.49
14,A88M,-0.05
15,A88T,0.17
16,L75N,-0.4
17,L75P,0
18,L75E,-0.08
19,L75V,-0.01
20,L75G,-0.34
21,L75I,0.09
22,L75D,-0.31
23,L75K,0.2
24,L75F,0.18

row,Variant,SGCB cell-surface expression functional score (log10)
1,L75T,0.27
2,L75S,0.09
3,L75W,0.39
4,L75Q,-0.18
5,L75C,-0.06
6,L75R,-0.32
7,L75A,-0.22
8,L75Y,-0.25
9,L75H,0.2
10,L75M,0.77
11,I78P,-0.22
12,I78L,-0.05
13,I78E,-0.45
14,I78F,-0.56
15,I78M,-0.34
16,I78K,0.05
17,I78A,0.15
18,I78C,-0.19
19,I78S,-0.22
20,I78Y,-0.68
21,I78D,-0.1
22,I78N,0.19
23,I78G,-0.04
24,I78T,-0.02

row,Variant,SGCB cell-surface expression functional score (log10)
1,I78H,0.1
2,I78R,-0.54
3,I78Q,-0.47
4,I78V,0
5,I78W,0.33
6,R91P,-1.76
7,R91E,-0.8
8,R91K,0.34
9,R91G,-0.52
10,R91M,-1.94
11,R91T,-2.04
12,R91V,-1.43
13,R91C,-0.72
14,R91F,-1.71
15,R91W,-1.69
16,R91Q,0.15
17,R91L,-1.93
18,R91H,0
19,R91Y,-1.94
20,R91S,-0.79
21,R91N,-0.75
22,R91A,-0.38
23,R91I,-1.85
24,R91D,-1.32

row,Variant,SGCB cell-surface expression functional score (log10)
1,I82M,-0.24
2,I82D,-0.85
3,I82E,-0.49
4,I82P,0.22
5,I82Q,0.28
6,I82A,0.03
7,I82L,0.07
8,I82F,0.01
9,I82W,-1.15
10,I82K,0.1
11,I82H,0.12
12,I82T,-0.05
13,I82Y,-0.15
14,I82S,-0.18
15,I82G,-0.2
16,I82N,-0.69
17,I82R,-0.66
18,I82C,0.11
19,I82V,0.04
20,V77C,-0.11
21,V77A,-0.12
22,V77M,0.2
23,V77T,-0.07
24,V77K,-0.21

row,Variant,SGCB cell-surface expression functional score (log10)
1,V77R,-0.37
2,V77W,-0.2
3,V77Y,-0.22
4,V77I,-0.12
5,V77H,-0.48
6,V77F,0.04
7,V77S,-0.06
8,V77Q,0.33
9,V77D,0.07
10,V77E,-0.04
11,V77N,-0.21
12,V77P,-0.24
13,V77L,-0.16
14,V77G,-0.14
15,V89M,-0.96
16,V89E,-0.95
17,V89S,-0.41
18,V89R,-0.63
19,V89Y,-1.29
20,V89T,-0.3
21,V89Q,-1.44
22,V89H,-1.8
23,V89P,-0.88
24,V89I,-0.52

row,Variant,SGCB cell-surface expression functional score (log10)
1,V89F,-1.21
2,V89N,-2.05
3,V89L,-1.13
4,V89G,-0.36
5,V89A,-0.23
6,V89C,0
7,V89W,-1.16
8,V89K,0.02
9,V89D,-2.32
10,L84K,0.18
11,L84Q,0.78
12,L84S,0.09
13,L84V,0.24
14,L84W,0.4
15,L84A,0
16,L84Y,-0.41
17,L84P,0.02
18,L84I,0.01
19,L84T,0.17
20,L84H,-0.4
21,L84R,0.08
22,L84D,-0.05
23,L84G,0.24
24,L84N,-0.44

row,Variant,SGCB cell-surface expression functional score (log10)
1,L84E,0.26
2,L84C,-0.21
3,L84M,0.1
4,L84F,-0.57
5,T83G,0.04
6,T83P,-0.3
7,T83N,0.2
8,T83Q,0.46
9,T83W,-0.91
10,T83R,-0.49
11,T83Y,-0.43
12,T83F,-0.77
13,T83K,-0.33
14,T83H,-0.43
15,T83L,0.1
16,T83D,-0.02
17,T83C,-0.51
18,T83S,-0.2
19,T83A,-0.17
20,T83I,0.05
21,T83V,-0.11
22,T83E,-0.18
23,T83M,0.14
24,N79G,0.06

row,Variant,SGCB cell-surface expression functional score (log10)
1,N79R,-0.8
2,N79E,0.06
3,N79V,0
4,N79S,-0.15
5,N79A,0.21
6,N79M,-0.67
7,N79C,0.15
8,N79F,-0.85
9,N79T,-0.23
10,N79P,0
11,N79Y,-0.74
12,N79Q,0.29
13,N79D,-0.24
14,N79H,-0.33
15,N79K,-0.4
16,N79I,-0.01
17,N79W,-1.05
18,N79L,-0.15
19,I81F,-0.08
20,I81M,-0.08
21,I81W,-0.38
22,I81P,0.12
23,I81D,0.12
24,I81E,0.31

row,Variant,SGCB cell-surface expression functional score (log10)
1,I81A,0.13
2,I81S,-0.14
3,I81R,-0.73
4,I81H,0.45
5,I81Q,0.03
6,I81G,0
7,I81T,-0.23
8,I81L,0.1
9,I81N,0.04
10,I81V,-0.03
11,I81C,-0.06
12,I81K,-0.06
13,I81Y,-0.45
14,V85I,-0.18
15,V85M,0.58
16,V85E,0.35
17,V85R,-0.06
18,V85L,0.24
19,V85T,-0.05
20,V85P,-1.14
21,V85H,-0.11
22,V85Y,-0.17
23,V85Q,0.08
24,V85K,0.01

row,Variant,SGCB cell-surface expression functional score (log10)
1,V85C,-0.21
2,V85A,0.3
3,V85W,-0.09
4,V85S,-0.2
5,V85F,-0.43
6,V85N,-0.37
7,V85D,-0.21
8,V85G,0.11
9,I86V,0.32
10,I86Q,-0.24
11,I86C,-0.24
12,I86R,-0.77
13,I86H,-1.91
14,I86L,-0.35
15,I86P,-0.94
16,I86S,-0.98
17,I86A,-0.08
18,I86N,-0.75
19,I86W,-2.19
20,I86Y,-0.61
21,I86M,-0.18
22,I86F,-0.48
23,I86T,-0.15
24,I86K,-0.65

row,Variant,SGCB cell-surface expression functional score (log10)
1,I86G,-0.59
2,I86D,-0.79
3,I86E,-0.39
4,L80N,0.12
5,L80I,-0.01
6,L80T,0.42
7,L80P,-0.3
8,L80H,-0.14
9,L80E,-0.1
10,L80F,-0.22
11,L80S,0.2
12,L80R,-0.03
13,L80V,0.26
14,L80D,-0.2
15,L80K,-0.07
16,L80Y,0.27
17,L80Q,-0.24
18,L80G,0.19
19,L80M,0.32
20,L80A,0.19
21,L80C,0.66
22,L80W,1.23
